{"source": "paper PMC9482650", "about": "“Quantitative fragmentomics allow affinity mapping of interactomes” (Nature Communications, 2022)", "binders": {"B1": {"name": "SDK2, Q58EX2 (peptide)", "chain": "APIAGFSSFV"}}, "data": [{"biological_target": "SCRIB_3, Q14160", "sequence (Q14160 999-1103)": "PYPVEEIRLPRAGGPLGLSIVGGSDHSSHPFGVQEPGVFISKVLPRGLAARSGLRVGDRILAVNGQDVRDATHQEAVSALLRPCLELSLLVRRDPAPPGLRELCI", "assay": "holdup assay", "parameters": "key: below the threshold = too weak to quantify, mostly under pKd 3.1 to 4", "conditions": "plain residues with an end cap or a label only (N-terminal biotin on a linker: ado-ado)", "values": [{"binder": "B1", "pKd": 4.06}]}, {"biological_target": "MAGI2_3, Q86UL8", "sequence (Q86UL8 600-682)": "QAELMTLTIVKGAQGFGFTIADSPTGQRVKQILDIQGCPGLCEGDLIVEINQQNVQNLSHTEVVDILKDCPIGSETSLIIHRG", "assay": "holdup assay", "parameters": "key: below the threshold = too weak to quantify, mostly under pKd 3.1 to 4", "conditions": "plain residues with an end cap or a label only (N-terminal biotin on a linker: ado-ado)", "values": [{"binder": "B1", "pKd": "below the threshold"}]}, {"biological_target": "T1, SNTG1, Q9NSN8", "T1 sequence (Q9NSN8 52-150, limits assumed, looked up)": "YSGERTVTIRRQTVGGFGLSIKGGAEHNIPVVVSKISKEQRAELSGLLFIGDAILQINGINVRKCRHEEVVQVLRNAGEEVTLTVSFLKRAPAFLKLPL", "assay": "holdup assay", "parameters": "key: below the threshold = too weak to quantify, mostly under pKd 3.1 to 4", "conditions": "plain residues with an end cap or a label only (N-terminal biotin on a linker: ado-ado)", "values": [{"binder": "B1", "pKd": 3.83}]}, {"biological_target": "Inadl_1, Q8NI35", "sequence (Q8NI35 113-229)": "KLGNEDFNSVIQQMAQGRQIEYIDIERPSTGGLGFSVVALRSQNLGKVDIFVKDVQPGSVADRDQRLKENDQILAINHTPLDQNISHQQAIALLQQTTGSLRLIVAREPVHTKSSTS", "assay": "holdup assay", "parameters": "key: below the threshold = too weak to quantify, mostly under pKd 3.1 to 4", "conditions": "plain residues with an end cap or a label only (N-terminal biotin on a linker: ado-ado)", "values": [{"binder": "B1", "pKd": "below the threshold"}]}, {"biological_target": "Inadl_9, Q8NI35", "sequence (Q8NI35 1530-1615)": "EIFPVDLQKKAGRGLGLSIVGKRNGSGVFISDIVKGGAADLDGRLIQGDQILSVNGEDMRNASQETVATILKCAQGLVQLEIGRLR", "assay": "holdup assay", "parameters": "key: below the threshold = too weak to quantify, mostly under pKd 3.1 to 4", "conditions": "plain residues with an end cap or a label only (N-terminal biotin on a linker: ado-ado)", "values": [{"binder": "B1", "pKd": 3.96}]}, {"biological_target": "GOPC, Q9HD26", "assay": "holdup assay", "parameters": "key: below the threshold = too weak to quantify, mostly under pKd 3.1 to 4", "conditions": "plain residues with an end cap or a label only (N-terminal biotin on a linker: ado-ado)", "values": [{"binder": "B1", "pKd": 4.13}]}, {"biological_target": "Inadl_6, Q8NI35", "sequence (Q8NI35 1058-1167)": "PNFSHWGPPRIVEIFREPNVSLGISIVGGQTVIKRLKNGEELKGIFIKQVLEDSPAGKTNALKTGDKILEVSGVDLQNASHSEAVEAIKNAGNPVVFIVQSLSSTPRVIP", "assay": "holdup assay", "parameters": "key: below the threshold = too weak to quantify, mostly under pKd 3.1 to 4", "conditions": "plain residues with an end cap or a label only (N-terminal biotin on a linker: ado-ado)", "values": [{"binder": "B1", "pKd": 3.72}]}, {"biological_target": "DLG4_3, P78352", "sequence (P78352 306-403)": "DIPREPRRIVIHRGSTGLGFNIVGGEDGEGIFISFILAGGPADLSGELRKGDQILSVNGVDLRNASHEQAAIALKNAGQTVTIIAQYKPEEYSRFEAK", "assay": "holdup assay", "parameters": "key: below the threshold = too weak to quantify, mostly under pKd 3.1 to 4", "conditions": "plain residues with an end cap or a label only (N-terminal biotin on a linker: ado-ado)", "values": [{"binder": "B1", "pKd": "below the threshold"}]}, {"biological_target": "T2, TX1BP3, O14907", "T2 sequence (O14907 10-122, limits assumed, looked up)": "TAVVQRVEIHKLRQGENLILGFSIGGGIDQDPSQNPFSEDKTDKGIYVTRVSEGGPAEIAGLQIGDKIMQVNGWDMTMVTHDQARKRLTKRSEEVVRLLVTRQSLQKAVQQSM", "assay": "holdup assay", "parameters": "key: below the threshold = too weak to quantify, mostly under pKd 3.1 to 4", "conditions": "plain residues with an end cap or a label only (N-terminal biotin on a linker: ado-ado)", "values": [{"binder": "B1", "pKd": 4.84}]}, {"biological_target": "TJP2_1, Q9UDY2", "sequence (Q9UDY2 24-128)": "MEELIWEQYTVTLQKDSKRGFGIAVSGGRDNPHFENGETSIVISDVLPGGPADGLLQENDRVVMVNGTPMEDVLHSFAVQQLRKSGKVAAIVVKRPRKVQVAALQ", "assay": "holdup assay", "parameters": "key: below the threshold = too weak to quantify, mostly under pKd 3.1 to 4", "conditions": "plain residues with an end cap or a label only (N-terminal biotin on a linker: ado-ado)", "values": [{"binder": "B1", "pKd": 4.19}]}, {"biological_target": "HTRA2, O43464", "sequence (O43464 355-458)": "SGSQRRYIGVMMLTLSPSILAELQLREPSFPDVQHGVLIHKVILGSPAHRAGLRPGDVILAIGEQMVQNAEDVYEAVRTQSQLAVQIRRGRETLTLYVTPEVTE", "assay": "holdup assay", "parameters": "key: below the threshold = too weak to quantify, mostly under pKd 3.1 to 4", "conditions": "plain residues with an end cap or a label only (N-terminal biotin on a linker: ado-ado)", "values": [{"binder": "B1", "pKd": 4.07}]}, {"biological_target": "T3, DLG3_1, Q92796", "T3 sequence (Q92796 125-227, limits assumed, looked up)": "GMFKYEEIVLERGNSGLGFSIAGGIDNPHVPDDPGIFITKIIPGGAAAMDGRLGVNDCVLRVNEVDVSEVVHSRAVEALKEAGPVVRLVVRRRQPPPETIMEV", "assay": "holdup assay", "parameters": "key: below the threshold = too weak to quantify, mostly under pKd 3.1 to 4", "conditions": "plain residues with an end cap or a label only (N-terminal biotin on a linker: ado-ado)", "values": [{"binder": "B1", "pKd": 3.88}]}, {"biological_target": "T4, PDZD2_2, O15018", "T4 sequence (O15018 329-429, limits assumed, looked up)": "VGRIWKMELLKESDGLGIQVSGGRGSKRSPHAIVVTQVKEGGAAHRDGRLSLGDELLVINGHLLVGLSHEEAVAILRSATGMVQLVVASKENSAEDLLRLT", "assay": "holdup assay", "parameters": "key: below the threshold = too weak to quantify, mostly under pKd 3.1 to 4", "conditions": "plain residues with an end cap or a label only (N-terminal biotin on a linker: ado-ado)", "values": [{"binder": "B1", "pKd": 5.54}]}, {"biological_target": "DLG4_2, P78352", "sequence (P78352 155-259)": "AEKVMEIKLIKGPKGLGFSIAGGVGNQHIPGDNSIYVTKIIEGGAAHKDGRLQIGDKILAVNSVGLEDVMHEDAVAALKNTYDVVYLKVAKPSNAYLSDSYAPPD", "assay": "holdup assay", "parameters": "key: below the threshold = too weak to quantify, mostly under pKd 3.1 to 4", "conditions": "plain residues with an end cap or a label only (N-terminal biotin on a linker: ado-ado)", "values": [{"binder": "B1", "pKd": 4.49}]}, {"biological_target": "NHERF4_2, Q86UT5", "sequence (Q86UT5 220-308)": "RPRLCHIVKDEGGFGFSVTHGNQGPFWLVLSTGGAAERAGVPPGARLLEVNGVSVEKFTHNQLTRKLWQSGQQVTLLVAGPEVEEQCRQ", "assay": "holdup assay", "parameters": "key: below the threshold = too weak to quantify, mostly under pKd 3.1 to 4", "conditions": "plain residues with an end cap or a label only (N-terminal biotin on a linker: ado-ado)", "values": [{"binder": "B1", "pKd": "below the threshold"}]}, {"biological_target": "FRMPD2_2, Q68DX3", "sequence (Q68DX3 944-1038)": "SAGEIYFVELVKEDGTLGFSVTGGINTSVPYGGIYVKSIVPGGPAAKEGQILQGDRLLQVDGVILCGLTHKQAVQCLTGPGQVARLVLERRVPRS", "assay": "holdup assay", "parameters": "key: below the threshold = too weak to quantify, mostly under pKd 3.1 to 4", "conditions": "plain residues with an end cap or a label only (N-terminal biotin on a linker: ado-ado)", "values": [{"binder": "B1", "pKd": 4.36}]}, {"biological_target": "T5, HTRA3, P83110", "T5 sequence (P83110 354-453, limits assumed, looked up)": "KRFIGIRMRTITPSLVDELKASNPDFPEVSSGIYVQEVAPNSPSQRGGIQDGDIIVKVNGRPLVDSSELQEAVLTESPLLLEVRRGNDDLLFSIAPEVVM", "assay": "holdup assay", "parameters": "key: below the threshold = too weak to quantify, mostly under pKd 3.1 to 4", "conditions": "plain residues with an end cap or a label only (N-terminal biotin on a linker: ado-ado)", "values": [{"binder": "B1", "pKd": 4.49}]}, {"biological_target": "PDLIM1, O00151", "sequence (O00151 1-87)": "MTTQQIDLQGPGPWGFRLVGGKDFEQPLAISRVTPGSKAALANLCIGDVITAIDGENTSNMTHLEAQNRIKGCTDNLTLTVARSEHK", "assay": "holdup assay", "parameters": "key: below the threshold = too weak to quantify, mostly under pKd 3.1 to 4", "conditions": "plain residues with an end cap or a label only (N-terminal biotin on a linker: ado-ado)", "values": [{"binder": "B1", "pKd": "below the threshold"}]}, {"biological_target": "FRMPD2_1, Q68DX3", "sequence (Q68DX3 770-861)": "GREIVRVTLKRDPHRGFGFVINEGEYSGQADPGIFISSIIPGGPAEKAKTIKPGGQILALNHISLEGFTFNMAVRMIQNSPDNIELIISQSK", "assay": "holdup assay", "parameters": "key: below the threshold = too weak to quantify, mostly under pKd 3.1 to 4", "conditions": "plain residues with an end cap or a label only (N-terminal biotin on a linker: ado-ado)", "values": [{"binder": "B1", "pKd": "below the threshold"}]}, {"biological_target": "T6, PCLO, Q9Y6V0", "T6 sequence (Q9Y6V0 4491-4600, limits assumed, looked up)": "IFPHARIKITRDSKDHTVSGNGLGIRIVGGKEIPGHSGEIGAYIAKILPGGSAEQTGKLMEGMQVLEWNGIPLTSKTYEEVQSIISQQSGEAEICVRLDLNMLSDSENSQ", "assay": "holdup assay", "parameters": "key: below the threshold = too weak to quantify, mostly under pKd 3.1 to 4", "conditions": "plain residues with an end cap or a label only (N-terminal biotin on a linker: ado-ado)", "values": [{"binder": "B1", "pKd": "below the threshold"}]}, {"biological_target": "T7, TIAM2, Q8IVF5", "T7 sequence (Q8IVF5 885-986, limits assumed, looked up)": "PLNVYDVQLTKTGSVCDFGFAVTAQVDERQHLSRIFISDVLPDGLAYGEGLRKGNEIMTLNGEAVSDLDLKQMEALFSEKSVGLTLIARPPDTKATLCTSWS", "assay": "holdup assay", "parameters": "key: below the threshold = too weak to quantify, mostly under pKd 3.1 to 4", "conditions": "plain residues with an end cap or a label only (N-terminal biotin on a linker: ado-ado)", "values": [{"binder": "B1", "pKd": "below the threshold"}]}, {"biological_target": "T8, RAPGEF6, Q8TEU7", "T8 sequence (Q8TEU7 525-625, limits assumed, looked up)": "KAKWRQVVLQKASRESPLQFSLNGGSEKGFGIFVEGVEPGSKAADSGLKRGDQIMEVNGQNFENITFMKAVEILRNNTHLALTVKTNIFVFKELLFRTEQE", "assay": "holdup assay", "parameters": "key: below the threshold = too weak to quantify, mostly under pKd 3.1 to 4", "conditions": "plain residues with an end cap or a label only (N-terminal biotin on a linker: ado-ado)", "values": [{"binder": "B1", "pKd": "below the threshold"}]}, {"biological_target": "GRIP2_4, Q9C0E4", "sequence (Q9C0E4 446-548)": "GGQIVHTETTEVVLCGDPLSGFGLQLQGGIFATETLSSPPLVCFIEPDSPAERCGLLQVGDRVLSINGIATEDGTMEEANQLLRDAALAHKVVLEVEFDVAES", "assay": "holdup assay", "parameters": "key: below the threshold = too weak to quantify, mostly under pKd 3.1 to 4", "conditions": "plain residues with an end cap or a label only (N-terminal biotin on a linker: ado-ado)", "values": [{"binder": "B1", "pKd": "below the threshold"}]}, {"biological_target": "IL16_4, Q14005", "sequence (Q14005 1229-1329)": "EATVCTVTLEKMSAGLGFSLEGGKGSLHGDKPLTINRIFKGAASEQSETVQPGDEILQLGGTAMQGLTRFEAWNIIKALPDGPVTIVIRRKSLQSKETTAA", "assay": "holdup assay", "parameters": "key: below the threshold = too weak to quantify, mostly under pKd 3.1 to 4", "conditions": "plain residues with an end cap or a label only (N-terminal biotin on a linker: ado-ado)", "values": [{"binder": "B1", "pKd": "below the threshold"}]}, {"biological_target": "TJP1_3, Q07157", "sequence (Q07157 416-512)": "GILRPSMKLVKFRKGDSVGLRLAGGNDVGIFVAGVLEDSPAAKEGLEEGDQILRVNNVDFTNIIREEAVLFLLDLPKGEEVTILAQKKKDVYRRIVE", "assay": "holdup assay", "parameters": "key: below the threshold = too weak to quantify, mostly under pKd 3.1 to 4", "conditions": "plain residues with an end cap or a label only (N-terminal biotin on a linker: ado-ado)", "values": [{"binder": "B1", "pKd": "below the threshold"}]}, {"biological_target": "T9, LIN7B, Q9HAP6", "T9 sequence (Q9HAP6 88-185, limits assumed, looked up)": "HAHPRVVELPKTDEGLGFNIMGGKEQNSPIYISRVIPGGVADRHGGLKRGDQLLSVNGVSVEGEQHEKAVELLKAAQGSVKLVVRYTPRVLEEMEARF", "assay": "holdup assay", "parameters": "key: below the threshold = too weak to quantify, mostly under pKd 3.1 to 4", "conditions": "plain residues with an end cap or a label only (N-terminal biotin on a linker: ado-ado)", "values": [{"binder": "B1", "pKd": "below the threshold"}]}, {"biological_target": "LNX1_1, Q8TBB1", "sequence (Q8TBB1 261-371)": "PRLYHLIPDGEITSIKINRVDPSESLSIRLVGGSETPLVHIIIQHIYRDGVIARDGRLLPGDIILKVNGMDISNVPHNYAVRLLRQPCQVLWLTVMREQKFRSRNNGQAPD", "assay": "holdup assay", "parameters": "key: below the threshold = too weak to quantify, mostly under pKd 3.1 to 4", "conditions": "plain residues with an end cap or a label only (N-terminal biotin on a linker: ado-ado)", "values": [{"binder": "B1", "pKd": 5.16}]}, {"biological_target": "LAP2, Q96RT1", "sequence (Q96RT1 other isoform, or with tags, fused parts or gaps)": "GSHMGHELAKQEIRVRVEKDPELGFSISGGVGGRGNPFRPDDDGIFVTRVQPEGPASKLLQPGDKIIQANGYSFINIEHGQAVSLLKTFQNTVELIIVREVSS", "assay": "holdup assay", "parameters": "key: below the threshold = too weak to quantify, mostly under pKd 3.1 to 4", "conditions": "plain residues with an end cap or a label only (N-terminal biotin on a linker: ado-ado)", "values": [{"binder": "B1", "pKd": 4.17}]}]}
